Literature values in patent US20240401145A1, “METHOD FOR PREDICTING THE RESPONSE OF A PATIENT DIAGNOSED WITH CANCER TO TREATMENT AND/OR IMAGING WITH A COMPOUND TARGETING CCK2-R, AND COMPOUND FOR USE IN METHODS OF SELECTIVELY TREATING AND/OR IMAGING CANCER” (Paul Scherrer Institut, priority 2021, published 2024).
Ends that are not written are not given here.

Columns and labels:
[1] = gastrin analogues labeled with a radionuclide such as 111In; reported from WO 2015/067473 A1
[2] = test system: transplanted CCKBR-expressing A431 cells; conditions: biodistribution in animal models; reported from WO 2015/067473 A1
[3] = biological target: T1, CCK2-R (Homo sapiens, UniProt P32239); conditions: known from prior art
T1 sequence (P32239 1-447): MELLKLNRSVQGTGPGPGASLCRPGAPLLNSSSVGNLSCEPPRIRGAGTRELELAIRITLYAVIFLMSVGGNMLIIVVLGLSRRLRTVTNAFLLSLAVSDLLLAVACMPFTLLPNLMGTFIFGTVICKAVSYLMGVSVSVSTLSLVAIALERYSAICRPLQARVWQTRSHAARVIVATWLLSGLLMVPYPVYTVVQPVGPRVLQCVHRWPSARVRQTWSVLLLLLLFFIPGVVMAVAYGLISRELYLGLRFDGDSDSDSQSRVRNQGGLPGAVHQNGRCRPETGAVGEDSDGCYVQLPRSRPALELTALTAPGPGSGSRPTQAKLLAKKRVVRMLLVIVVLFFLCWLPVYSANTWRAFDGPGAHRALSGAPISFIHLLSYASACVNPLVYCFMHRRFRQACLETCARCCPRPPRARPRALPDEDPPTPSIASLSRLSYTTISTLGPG

Substance | chemical stability (resistance to proteolysis and oxidation) [1] | accumulation in the kidneys [2] | uptake in transplanted CCKBR-expressing A431 cells [2] | affinity of binding to CCK2-R [3]
DOTA-(DGln)6-Ala-Tyr-Gly-Trp-Nle-Asp-Phe-NH2 [PP-F10N, reference compound] | good | low accumulation | good uptake | 
DOTA-(DGlu)6-Ala-Tyr-Gly-Trp-Nle-Asp-Phe-NH2 [PP-F11N] | good | low accumulation | good uptake | 
minigastrin: small peptide hormone known to bind CCK2-R with high affinity (WLEEEEEAYGWMDF; ends and bridges not checked; UniProt P01350 79-92, looked up) |  |  |  | high affinity
